# According to paper PMC9482650, “Quantitative fragmentomics allow affinity mapping of interactomes” (Nature Communications, 2022):
# Residue numbers refer to the chain shown, from its start.
# T1: GRIP1_3, Q9Y3R0
# T1 sequence (Q9Y3R0 247-346, limits assumed, looked up): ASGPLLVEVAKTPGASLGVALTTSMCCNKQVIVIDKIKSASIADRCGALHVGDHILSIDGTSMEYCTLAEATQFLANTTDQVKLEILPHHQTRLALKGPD
# T2: HTRA3, P83110
# T2 sequence (P83110 354-453, limits assumed, looked up): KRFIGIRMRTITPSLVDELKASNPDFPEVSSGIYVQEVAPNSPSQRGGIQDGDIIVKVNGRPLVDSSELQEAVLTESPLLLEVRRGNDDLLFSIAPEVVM
# T3: LIN7C, Q9NUP9
# T3 sequence (Q9NUP9 88-185, limits assumed, looked up): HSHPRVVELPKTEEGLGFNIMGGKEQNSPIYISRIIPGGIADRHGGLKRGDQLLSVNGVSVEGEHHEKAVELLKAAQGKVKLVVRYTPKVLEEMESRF
# T4: ARHGEF11, O15085
# T4 sequence (O15085 42-136, limits assumed, looked up): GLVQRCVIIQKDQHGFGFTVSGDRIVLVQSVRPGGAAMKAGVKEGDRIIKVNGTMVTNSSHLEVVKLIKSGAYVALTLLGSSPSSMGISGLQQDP
# T5: SIPA1L2, Q9P2F8
# T5 sequence (Q9P2F8 945-1036, limits assumed, looked up): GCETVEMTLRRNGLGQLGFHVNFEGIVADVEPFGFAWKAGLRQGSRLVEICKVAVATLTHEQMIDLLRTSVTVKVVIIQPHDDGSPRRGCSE
# T6: GRIP1_4, Q9Y3R0
# T6 sequence (Q9Y3R0 467-571, limits assumed, looked up): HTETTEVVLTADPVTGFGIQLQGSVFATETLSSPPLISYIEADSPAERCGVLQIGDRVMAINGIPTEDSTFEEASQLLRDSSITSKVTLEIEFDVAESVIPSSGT
# T7: PDZRN3_1, Q9UPQ7
# T7 sequence (Q9UPQ7 244-349, limits assumed, looked up): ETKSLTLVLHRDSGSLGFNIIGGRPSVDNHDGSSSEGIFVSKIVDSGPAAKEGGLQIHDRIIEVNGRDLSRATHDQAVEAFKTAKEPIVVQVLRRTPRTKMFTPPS
# T8: LIN7B, Q9HAP6
# T8 sequence (Q9HAP6 88-185, limits assumed, looked up): T3 sequence (Q9NUP9 88-185, limits assumed, looked up) with S2A, E13D, I35V, I40V, H65Q, K79S, K89R, S96A
# T9: SNTA1, Q13424
# T9 sequence (Q13424 82-180, limits assumed, looked up): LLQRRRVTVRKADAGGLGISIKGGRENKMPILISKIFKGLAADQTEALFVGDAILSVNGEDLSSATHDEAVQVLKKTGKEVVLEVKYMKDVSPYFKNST
# T10: DFNB31_1, Q9P202
# T10 sequence (Q9P202 135-233, limits assumed, looked up): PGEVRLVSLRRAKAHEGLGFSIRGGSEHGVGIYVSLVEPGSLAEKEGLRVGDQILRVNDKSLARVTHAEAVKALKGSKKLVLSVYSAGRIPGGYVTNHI
# T11: DFNB31_3, Q9P202
# T11 sequence (Q9P202 811-907, limits assumed, looked up): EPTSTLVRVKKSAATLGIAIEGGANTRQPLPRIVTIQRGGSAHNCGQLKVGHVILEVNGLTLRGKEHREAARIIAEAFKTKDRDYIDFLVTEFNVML
# T12: DLG3_3, Q92796
# T12 sequence (Q92796 374-475, limits assumed, looked up): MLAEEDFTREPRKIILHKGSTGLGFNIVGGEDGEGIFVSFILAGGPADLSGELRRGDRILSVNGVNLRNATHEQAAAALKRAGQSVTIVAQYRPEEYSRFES
# T13: MPP7, Q5T2T1
# T13 sequence (Q5T2T1 134-230, limits assumed, looked up): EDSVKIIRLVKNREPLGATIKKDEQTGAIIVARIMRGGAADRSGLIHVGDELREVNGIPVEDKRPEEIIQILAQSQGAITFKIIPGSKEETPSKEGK
# Target: T1, GRIP1_3, Q9Y3R0
# Experiment: holdup assay
# Set-up: key: below the threshold = too weak to quantify, mostly under pKd 3.1 to 4
# Conditions: plain residues with an end cap or a label only (N-terminal biotin on a linker: ado-ado)
row,pKd,Binder
1,below the threshold,"DSEEELPTRL [GRK6, P43250]"
2,below the threshold,"QKASRNESTF [POLR1D, P0DPB6]"

# Target: T2, HTRA3, P83110
# Experiment: holdup assay
# Set-up: key: below the threshold = too weak to quantify, mostly under pKd 3.1 to 4
# Conditions: plain residues with an end cap or a label only (N-terminal biotin on a linker: ado-ado)
row,pKd,Binder
1,below the threshold,"DSEEELPTRL [GRK6, P43250]"
2,below the threshold,"QKASRNESTF [POLR1D, P0DPB6]"

# Target: T3, LIN7C, Q9NUP9
# Experiment: holdup assay
# Set-up: key: below the threshold = too weak to quantify, mostly under pKd 3.1 to 4
# Conditions: plain residues with an end cap or a label only (N-terminal biotin on a linker: ado-ado)
row,pKd,Binder
1,below the threshold,"DSEEELPTRL [GRK6, P43250]"
2,below the threshold,"QKASRNESTF [POLR1D, P0DPB6]"

# Target: FRMPD4, Q14CM0
# Sequence (Q14CM0 67-160): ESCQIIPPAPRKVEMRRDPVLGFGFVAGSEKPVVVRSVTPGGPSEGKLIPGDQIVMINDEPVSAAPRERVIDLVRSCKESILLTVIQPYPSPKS
# Experiment: holdup assay
# Set-up: key: below the threshold = too weak to quantify, mostly under pKd 3.1 to 4
# Conditions: plain residues with an end cap or a label only (N-terminal biotin on a linker: ado-ado)
row,pKd,Binder
1,4.39,"DSEEELPTRL [GRK6, P43250]"
2,below the threshold,"QKASRNESTF [POLR1D, P0DPB6]"

# Target: MAGI2_4, Q86UL8
# Sequence (Q86UL8 772-865): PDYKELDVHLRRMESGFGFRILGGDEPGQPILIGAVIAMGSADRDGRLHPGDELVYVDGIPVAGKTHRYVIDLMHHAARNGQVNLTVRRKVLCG
# Experiment: holdup assay
# Set-up: key: below the threshold = too weak to quantify, mostly under pKd 3.1 to 4
# Conditions: plain residues with an end cap or a label only (N-terminal biotin on a linker: ado-ado)
row,pKd,Binder
1,3.47,"DSEEELPTRL [GRK6, P43250]"
2,3.88,"QKASRNESTF [POLR1D, P0DPB6]"

# Target: GRID2IP_1, A4D2P6
# Sequence (A4D2P6 1-87): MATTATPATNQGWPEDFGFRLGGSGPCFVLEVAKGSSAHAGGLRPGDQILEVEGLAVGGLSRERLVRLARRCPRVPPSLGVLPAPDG
# Experiment: holdup assay
# Set-up: key: below the threshold = too weak to quantify, mostly under pKd 3.1 to 4
# Conditions: plain residues with an end cap or a label only (N-terminal biotin on a linker: ado-ado)
row,pKd,Binder
1,below the threshold,"DSEEELPTRL [GRK6, P43250]"
2,below the threshold,"QKASRNESTF [POLR1D, P0DPB6]"

# Target: T4, ARHGEF11, O15085
# Experiment: holdup assay
# Set-up: key: below the threshold = too weak to quantify, mostly under pKd 3.1 to 4
# Conditions: plain residues with an end cap or a label only (N-terminal biotin on a linker: ado-ado)
row,pKd,Binder
1,3.78,"DSEEELPTRL [GRK6, P43250]"
2,below the threshold,"QKASRNESTF [POLR1D, P0DPB6]"

# Target: GORASP2, Q9H8Y8
# Experiment: holdup assay
# Set-up: key: below the threshold = too weak to quantify, mostly under pKd 3.1 to 4
# Conditions: plain residues with an end cap or a label only (N-terminal biotin on a linker: ado-ado)
row,pKd,Binder
1,below the threshold,"DSEEELPTRL [GRK6, P43250]"
2,below the threshold,"QKASRNESTF [POLR1D, P0DPB6]"

# Target: GRIP2_5, Q9C0E4
# Sequence (Q9C0E4 544-642): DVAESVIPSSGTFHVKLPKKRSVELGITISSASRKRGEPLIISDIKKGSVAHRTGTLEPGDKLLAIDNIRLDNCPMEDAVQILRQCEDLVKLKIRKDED
# Experiment: holdup assay
# Set-up: key: below the threshold = too weak to quantify, mostly under pKd 3.1 to 4
# Conditions: plain residues with an end cap or a label only (N-terminal biotin on a linker: ado-ado)
row,pKd,Binder
1,below the threshold,"DSEEELPTRL [GRK6, P43250]"
2,below the threshold,"QKASRNESTF [POLR1D, P0DPB6]"

# Target: T5, SIPA1L2, Q9P2F8
# Experiment: holdup assay
# Set-up: key: below the threshold = too weak to quantify, mostly under pKd 3.1 to 4
# Conditions: plain residues with an end cap or a label only (N-terminal biotin on a linker: ado-ado)
row,pKd,Binder
1,below the threshold,"DSEEELPTRL [GRK6, P43250]"
2,below the threshold,"QKASRNESTF [POLR1D, P0DPB6]"

# Target: GOPC, Q9HD26
# Experiment: holdup assay
# Set-up: key: below the threshold = too weak to quantify, mostly under pKd 3.1 to 4
# Conditions: plain residues with an end cap or a label only (N-terminal biotin on a linker: ado-ado)
row,pKd,Binder
1,3.83,"DSEEELPTRL [GRK6, P43250]"
2,below the threshold,"QKASRNESTF [POLR1D, P0DPB6]"

# Target: T6, GRIP1_4, Q9Y3R0
# Experiment: holdup assay
# Set-up: key: below the threshold = too weak to quantify, mostly under pKd 3.1 to 4
# Conditions: plain residues with an end cap or a label only (N-terminal biotin on a linker: ado-ado)
row,pKd,Binder
1,below the threshold,"DSEEELPTRL [GRK6, P43250]"
2,below the threshold,"QKASRNESTF [POLR1D, P0DPB6]"

# Target: T7, PDZRN3_1, Q9UPQ7
# Experiment: holdup assay
# Set-up: key: below the threshold = too weak to quantify, mostly under pKd 3.1 to 4
# Conditions: plain residues with an end cap or a label only (N-terminal biotin on a linker: ado-ado)
row,pKd,Binder
1,below the threshold,"DSEEELPTRL [GRK6, P43250]"
2,below the threshold,"QKASRNESTF [POLR1D, P0DPB6]"

# Target: T8, LIN7B, Q9HAP6
# Experiment: holdup assay
# Set-up: key: below the threshold = too weak to quantify, mostly under pKd 3.1 to 4
# Conditions: plain residues with an end cap or a label only (N-terminal biotin on a linker: ado-ado)
row,pKd,Binder
1,below the threshold,"DSEEELPTRL [GRK6, P43250]"
2,3.96,"QKASRNESTF [POLR1D, P0DPB6]"

# Target: Inadl_2, Q8NI35
# Sequence (Q8NI35 238-335): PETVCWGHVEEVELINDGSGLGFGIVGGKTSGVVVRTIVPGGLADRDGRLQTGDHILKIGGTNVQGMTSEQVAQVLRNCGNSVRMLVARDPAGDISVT
# Experiment: holdup assay
# Set-up: key: below the threshold = too weak to quantify, mostly under pKd 3.1 to 4
# Conditions: plain residues with an end cap or a label only (N-terminal biotin on a linker: ado-ado)
row,pKd,Binder
1,below the threshold,"DSEEELPTRL [GRK6, P43250]"
2,below the threshold,"QKASRNESTF [POLR1D, P0DPB6]"

# Target: T9, SNTA1, Q13424
# Experiment: holdup assay
# Set-up: key: below the threshold = too weak to quantify, mostly under pKd 3.1 to 4
# Conditions: plain residues with an end cap or a label only (N-terminal biotin on a linker: ado-ado)
row,pKd,Binder
1,below the threshold,"DSEEELPTRL [GRK6, P43250]"
2,below the threshold,"QKASRNESTF [POLR1D, P0DPB6]"

# Target: T10, DFNB31_1, Q9P202
# Experiment: holdup assay
# Set-up: key: below the threshold = too weak to quantify, mostly under pKd 3.1 to 4
# Conditions: plain residues with an end cap or a label only (N-terminal biotin on a linker: ado-ado)
row,pKd,Binder
1,below the threshold,"DSEEELPTRL [GRK6, P43250]"
2,below the threshold,"QKASRNESTF [POLR1D, P0DPB6]"

# Target: GORASP1, Q9BQQ3
# Sequence (Q9BQQ3 1-208): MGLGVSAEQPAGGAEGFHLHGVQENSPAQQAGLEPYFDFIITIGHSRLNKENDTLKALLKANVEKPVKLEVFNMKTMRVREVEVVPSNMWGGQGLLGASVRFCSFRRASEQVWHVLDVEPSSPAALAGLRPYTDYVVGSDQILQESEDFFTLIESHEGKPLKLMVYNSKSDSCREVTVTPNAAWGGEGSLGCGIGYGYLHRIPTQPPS
# Experiment: holdup assay
# Set-up: key: below the threshold = too weak to quantify, mostly under pKd 3.1 to 4
# Conditions: plain residues with an end cap or a label only (N-terminal biotin on a linker: ado-ado)
row,pKd,Binder
1,below the threshold,"DSEEELPTRL [GRK6, P43250]"
2,below the threshold,"QKASRNESTF [POLR1D, P0DPB6]"

# Target: GIPC2, Q8TF65
# Sequence (Q8TF65 112-203): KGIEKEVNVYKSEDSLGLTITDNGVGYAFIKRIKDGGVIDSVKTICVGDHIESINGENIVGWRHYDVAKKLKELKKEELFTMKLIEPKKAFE
# Experiment: holdup assay
# Set-up: key: below the threshold = too weak to quantify, mostly under pKd 3.1 to 4
# Conditions: plain residues with an end cap or a label only (N-terminal biotin on a linker: ado-ado)
row,pKd,Binder
1,3.65,"DSEEELPTRL [GRK6, P43250]"
2,below the threshold,"QKASRNESTF [POLR1D, P0DPB6]"

# Target: T11, DFNB31_3, Q9P202
# Experiment: holdup assay
# Set-up: key: below the threshold = too weak to quantify, mostly under pKd 3.1 to 4
# Conditions: plain residues with an end cap or a label only (N-terminal biotin on a linker: ado-ado)
row,pKd,Binder
1,3.53,"DSEEELPTRL [GRK6, P43250]"
2,below the threshold,"QKASRNESTF [POLR1D, P0DPB6]"

# Target: T12, DLG3_3, Q92796
# Experiment: holdup assay
# Set-up: key: below the threshold = too weak to quantify, mostly under pKd 3.1 to 4
# Conditions: plain residues with an end cap or a label only (N-terminal biotin on a linker: ado-ado)
row,pKd,Binder
1,below the threshold,"DSEEELPTRL [GRK6, P43250]"
2,3.6,"QKASRNESTF [POLR1D, P0DPB6]"

# Target: NHERF4_2, Q86UT5
# Sequence (Q86UT5 220-308): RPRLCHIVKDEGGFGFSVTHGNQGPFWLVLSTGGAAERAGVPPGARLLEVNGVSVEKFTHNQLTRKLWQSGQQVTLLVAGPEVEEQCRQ
# Experiment: holdup assay
# Set-up: key: below the threshold = too weak to quantify, mostly under pKd 3.1 to 4
# Conditions: plain residues with an end cap or a label only (N-terminal biotin on a linker: ado-ado)
row,pKd,Binder
1,below the threshold,"DSEEELPTRL [GRK6, P43250]"
2,below the threshold,"QKASRNESTF [POLR1D, P0DPB6]"

# Target: T13, MPP7, Q5T2T1
# Experiment: holdup assay
# Set-up: key: below the threshold = too weak to quantify, mostly under pKd 3.1 to 4
# Conditions: plain residues with an end cap or a label only (N-terminal biotin on a linker: ado-ado)
row,pKd,Binder
1,below the threshold,"DSEEELPTRL [GRK6, P43250]"
2,below the threshold,"QKASRNESTF [POLR1D, P0DPB6]"

# Target: DLG4_2, P78352
# Sequence (P78352 155-259): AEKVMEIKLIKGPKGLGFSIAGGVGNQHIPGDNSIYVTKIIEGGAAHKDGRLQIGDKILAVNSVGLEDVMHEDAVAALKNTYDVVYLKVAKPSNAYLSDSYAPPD
# Experiment: holdup assay
# Set-up: key: below the threshold = too weak to quantify, mostly under pKd 3.1 to 4
# Conditions: plain residues with an end cap or a label only (N-terminal biotin on a linker: ado-ado)
row,pKd,Binder
1,below the threshold,"DSEEELPTRL [GRK6, P43250]"
2,below the threshold,"QKASRNESTF [POLR1D, P0DPB6]"

# Target: CASK, O14936
# Sequence (O14936 487-570): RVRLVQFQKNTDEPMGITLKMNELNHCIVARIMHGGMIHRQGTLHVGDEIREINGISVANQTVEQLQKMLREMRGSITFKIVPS
# Experiment: holdup assay
# Set-up: key: below the threshold = too weak to quantify, mostly under pKd 3.1 to 4
# Conditions: plain residues with an end cap or a label only (N-terminal biotin on a linker: ado-ado)
row,pKd,Binder
1,below the threshold,"DSEEELPTRL [GRK6, P43250]"
2,below the threshold,"QKASRNESTF [POLR1D, P0DPB6]"
